Results from the nanobody polyreactivity screen of Harvey et al. (2022).

Test: yeast display, Sf9 membrane polyspecificity reagent, FACS + sequencing; frameworks hold sequencing errors
How it was run: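 Synthetic nanobody libraries on Saccharomyces cerevisiae BJ5465 were galactose-induced for 36–48 hours, stained 1 hour at 4 °C with 10% biotinylated, detergent-solubilized Sf9 membrane reagent and enriched on streptavidin microbeads. FACS then separated cells into low and high (top ~1%) gates by anti-HA (expression) and streptavidin (reagent binding) fluorescence. Genes were colony-PCR amplified, MiSeq 2 × 250 sequenced and CDR-length filtered. A clone's polyreactivity label is that of its gate of origin.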

Sequence	polyreactivity (PSR sort gate)
QVQLVESGGGLVQAGGSLRLSCAASGFILVGYAMGWYRQARGKERELVAAITSGGTTSYADAVKGSFIISRDNAKNTVYLQMISLKPEESAVYYCAAVQWDSSSKYYYWGQGTQVTVSS	low polyreactivity
QVQLVESGGGLVQAGGSLRLSCAASGRIFNGYAMGWYRQAPGKERELVAAINSSGGSTYYADSVKGRFTISRDNAKNTVYLQMNSLKPEDTAVYYCARVSYHYRTYDYWGQGTQVTVSS	high polyreactivity
QVQLVESGGGLVQAGGSLRLSCAASGSTFYLYAMGWYRQAPGKERELVAAISRGGTTYYADSVKGRFTISRDNAKNTVYLKMNSLKPEDTAVYYCAARRPWWYGGGMDYWGQGTQVTVSS	high polyreactivity
QVQLVESGGGLVQAGGSLRLSCAASGFTFVSYAMGWYRQATGKERELVAVIDNSDGDTYYADSVKGRFTISRDNAKNTVYLQMNSLKPEDTAVYYCAADAVIEWTDWYSAWWYYYWGQGTQVTVSS	low polyreactivity
QVQLVESGGGLVQAGGSLRLSCAASGSIFIYNAMGWYRPAPGKETEFVDTINSGTVTKYADSVKGRFTISRDNAKNTVYLQMNSLKPEDTAVYYCATVFDRQYSTQYQVSRYDYWVQGTQVTVSS	low polyreactivity
QVQLVESGGGLVQAGGSLRLSCAASGFIFYRYVMGWYRQAPGKERELVAAITWSGGSTYYADSVKGRFTISRDNAKNTVYLQMNSLKPEDTAGNYCAAEWWLPSFGMDYWGQGTQVTVSS	low polyreactivity
QVQLVESGRGLFQAGGRLRLSCAASGRIFSFYAMGWSRQAPGKERELVASITSGGITNYADSVKGRFTISRDNAKNTVYLQMNSLKPEDTAVYYCNAANPYRRVGSFTYKYDYWGQGTQVTVSS	low polyreactivity
QVQLVESGGGLVQAGGSLRLSCAASGSIFQYNAMGWYRPAPGKERELVAAISSRGGITYYADSVKGRFTISRDNAKNTVYLQMNSMKPEDTAVYDCAAVAYYSEVRWYEYWGQGTQVTVSS	high polyreactivity
QVQLVESGGGLVQAGGSLRLSCAASGRTFVANVKGWYRQAPGKERELVAGISTRGGRTYYADSVKGRFTISRDNAKNTVYLQMNSLKPEDTAVYYCAVRHYRDSTPRGAYQRYDYWGQGTQVTVSS	low polyreactivity
QVQLVESGGGLVQAGGSLRLSCAASGRIFYRYAMGWSRPAHGKERELVASISGSGGRTYYADSVKGRFTISRDNAKNTVYLQMNSLKPEDTAVSYCAARIRPSYDWGQGTQVTVSS	high polyreactivity
QVQLVESAGGLVQAGGSLRLSCDASGSTFVINAMGWYRPAPGKERELVAAISKSGGRTYYADSVKGRFTISRDNAKNTVYLQMNSLKPEDTAVYYCAAVSQRTRYGYWGQGTQVTVSS	high polyreactivity
QVQLVESGGGLVQAGGSLRLSCAASGIIFLNYAMGWYRQAPGKERELDAGITGRGGITYYTDSVKGRFTISRDNAKNTVYLQMNSLKPEDTAVYYCAARRYRFAGDYRMYYWGQGTQVTVSS	high polyreactivity
QVQLVESGGGLVQAGGSLRLSCAASGSIFRLYVMGWYRQAPGKERELVAAITLSGGSTYYADSVKGRFTISRDNAENTVYLQMNSLKPEDTAVYYCNRVTLYDITFDYWGQGTQVTVSS	low polyreactivity
QVQLVESGGGLVQAGGSLRLCCAAYGSIFARNSMGWYRHAPGKERELVAVITTGGRTYYADSVKGRFTISRDNAKNTVYLQMNSMKPEDTAVYYCATRVIYGNSGGYWGKGTQVTVSS	high polyreactivity
QVQLVESGGGLVQAGGSHRLSCAASGRTFGGNVMGWYRPAHWKERELVAAISSTGDRTYYADSVKGRFTISRDNAKNTVYLQMYSLKPEDTAVYYCAARPAYRSSYYWGQGTQVTVSS	high polyreactivity
QVQLVESGGGLVQAGGSLRLSCAASGSILNAYAMGWYRQAPGKERELVAAITGSDGSTYYADSVKGRFTISRDNAKNTVYLQMNSLKPEDTAVYYCNADYSQPVYWWLDDYWGHGTQVTVSS	low polyreactivity
QVQLVESGGGLVQAGGSLRLSCAASGNIIDFYAMGWYRQAPGKERELVAAITSGGSTNFADSVKGRFTISRDNAKNTVYLQMNSLKPEDTAVYYCAARQWFSHRRWGGSRYDYWGQGTQVTVSS	high polyreactivity
QGQLVESGGGLVQAGGSLRLSCAASGRTFWYYTIGWYRQAPGKERELVAAISSGGRTNYADSVKGRFTISRDNAKNPVYLQMNSLKPEDTAVYYCASSRYYKYVERDYWGQGTQVTVSS	high polyreactivity
QVQLVESGGGLVQAGGSLRLSCAASVRNYGINVMVWYRQAPGKERELVAAISYRTGSTYYADSVKGRFTISRDNAKNTVYLQMNSLKPEDTAVYYCDALRSIRTAWYDYWGQGTQVTVSS	high polyreactivity
QVQLVESGGGLVQAGGSLRLSCASSGRTFRRYAMGWYRQAPGKERELVAAITWSGGSTYYADSVKGRFTFSRDYGKNTVYLQMNSLKPADTAEYYCAVSPLYSTSYYGLRKGYYWGQGTQVTVSS	high polyreactivity
QVQIVESAGGLVQAGGSLSLSCAASGITYVFYALGWYRQEPGKERELVSDMSWSGGITYYADSVMGRFTISRDNAKNTVYLQMNSLKPEDPAVYYCAATKRQTKYYGGTTDSIMYYWGQGTQVTVSS	low polyreactivity
QVQLVESGGGLVKAGGSLRLSCAASGRTFSSNAMGWNRQAPGKERELVAAISSSGAGTYYADSVKGRFTISRDNAKNTVYFQMTILKPEDSAVYYCAARANSYHSFTSPYDYWGQGTQVTVSS	low polyreactivity

Sequence	polyreactivity (PSR sort gate)
QVQLVESGGGLVQAGGSLRLSCAASGSMFYYYAMGWYRQAPGKERELVAAISSAGITNYADSVKGRFTISRDNAKNTVYLQMNSLKPEDTAVSYCAAAVFDIYWFLGEAYYFQYDYWGQGTQVTVSS	high polyreactivity
QVQLVESGGGLVQAGGSLRLSCAASGSIFKNNAMGWYRQAPGKERELVAAIRSSGGSTYYADSVKGRFTISRDNAKHTVYLQMKSLKPEDTAVYYCAARYRSYPTYYQYNYWGQGTQVTVSS	high polyreactivity
QVQLVESGGGLVQAGGSLRLSCAASGSTFLYNAMGWYRQAPGKERELVAAISTTGARTNYADSVKGRFTISRDNAKNTVYLQMNSLKPEDTAVYYCKDRRGHYWGQGTQVTVSS	high polyreactivity
QVQLVESGGGLVQAGGSLRLSCAASGSIFALYAIGWYRQAPGKEREFVAAISYNGGSTYYADSVKGRFTISRDNAKNTVYLQMNSLKPEDTAVYYCNDVYYDSGVVGYYYWGQGTQVTVSS	high polyreactivity
QVQLVETGGGLVQAGGSLRLSCAASGSIFIYFAMGWYRQAPGKERELVAAIDRSGGNTYYADSVKGRFTLSRDYAKNTVYLQMNSLKPEDTAVYYCAALVHRRVQYDYWGQGTQVTVSS	high polyreactivity
QVQLEESGGGLVQAGGSLRLSCAASGLIIRAYAMGWSRQAPGKERELVAAITSSSGSTYYADSVKGRFTISRDNGKNSVYLQMNSLNPEDTAVYYCNAYSTFGWYDYWGQGTQVTVSS	low polyreactivity
QVQLVESGGGLVQAGGSLRLSCAASGGIFYSYAMGWYRQAPGKERELVAALSRGSRTYYADSVKGRFTISRDNAKNTVYLQMNSLKPEDTAVYYCAAYIVGSYRDGYWGQGTQVSVSS	high polyreactivity
QVQLVESGGGLVQAGGSLRLSCAAYGSTFCVYAMGWYRQAQGKERELVAAINFSGRTYYADSVKVRFSISRDNAKNTVYVQMNSLKPEDTAVYYCAARIIFEDVGTKYYYWGQGTHVTVSS	high polyreactivity
QVQLVESGGGLVQAGGSLRLSCAASGSIFVTNAMGWYRQAPGKERELVAAISWRGGSTYYADSVKGRFTISRDNAKNTVYLQMNSLKPEDTAVYYCNTYHPYWGSGFDYWGQGTQVTVSS	low polyreactivity
QVQLVESGGGLVQAGGSLRLSCAASGRIFGVYAMGWYRQAPGKERELVAAIRGDGSTNYADSVKGRFTISRDNAKNTVYLQMNSLKPEDTAVYYCATDLGIYSGSPWGYYYWGQGTQVTVSS	low polyreactivity
QVQLVESGGGLVQAGGSLRLSCAASGSTFDENAMGWYRQAPGKERELVAVISDSGGSTYYADSVKGRFTISRDYAKNTVYFQMNSLKPEDTAVYYCAKDVPPEYPTSSYDYWGQGSQVTVSS	low polyreactivity
QVQLVESGGGLVQAGGSLRLSCAASGSIFNRYAMGWYRQAPGKERELVAAIRSDGSTYYADSVKGRFTISRDNAKNTVYLQMNSLKPEDSAVYYCAAPLHRRYYEMDYWGQGSQVTVSS	low polyreactivity
QVQLVESGGGLVQAGGSLRLSCAASGRTFRWYAMGRYRQAPGKERELVAVISRGGGSTTYADSVKGRFTISRDNAKNTVYLQMNSLKPEDTAVYYCAAQWSGSVGSRPMYYWGQGSQVTVSS	high polyreactivity
QVQLVESGGGLVQAGGSLRLNCAASGITYTQYAMGWYRQAPGKERELVAAISKRGGRTYYADSVKGRFTISRDNAKNTVYLQMNCLIPEDTAVYYCATVPYGEVDYWGQGTQVTVSS	high polyreactivity
QVQLVESGGGLDQAGGSLRLSCAATGGTFTRKAMGWYRQAPGKERELVASITSGDTTNYADSVKGRFTISRDNAKNTVYLQMNSLKPEDTAVYYCATDTPTDRYAAYPHDPYYYWGQGTQVTVSS	low polyreactivity
QVQLVESGGGLVQAGGSLRLSCAASGRTFVTNAMGWYRQAPGKERELVATINWSGGRTHYADSVKGRFTISRDNAKNTVYLQMNSLKPEDTEVYYCAKASSRRYWTIRDGDYWGQGTQVTVSS	low polyreactivity
QVQLVESGGGLVQAGGSLRLSCAASGRTFAKYAMGWYRQAPGKERELVASISGRGTNTYYADSVKGRFTISRDNAKNTVYLQMNSLKPEDTAVYYCAATYVYPYRDSHYYYWGQGTQVTVSS	high polyreactivity
QVQLVESGGGLVQAGGSLRLSCAASGRTIWNYALGWYRQGPGKERELVAVIRFSDGSTYYADSVKGRFTISRDNAKNTVYLQMNSLKPEDTAVYYCAAKGPRLWGSGFDYWGQGTQVTVSS	low polyreactivity
QVQLVESGGGLVQAGGSLRLSCAASGSIFPRYAMGWYRQAPGKERELVAAITNGGSTDYADSVKGRFTISRDNAKKTVYLLMNSLKPEDTAGYYCAADLAVGIYPEDGDYWGQGTKVTVSS	low polyreactivity
QVQLVESGGGLVQAGGSLRLSCAASGRIIKFYAMGWYRQAPGKERELVAVIRSGTRTKYADSVKGRFTISRDNAKNTVYLQMNSLKPVDTAVYYCIRYFSEALLHGSSYNRYYYWGQGTQVTVSS	low polyreactivity
QVQLVESGGGLVQAGGRLRLSCAASGRIFVYYMGWNIQAPGKERELVAAISFGGGSTYYADSVKGRFTISRDNAKNSVYLQMYSLKPEDTAVYYCNADGDDLDWNYYLVQYDYWGQGTQVTVSS	low polyreactivity
